Measured values: article PMC10058294, “Interaction of SARS-CoV-2 Nucleocapsid Protein and Human RNA Helicases DDX1 and DDX3X Modulates Their Activities on Double-Stranded RNA” (International Journal of Molecular Sciences, 2023)

Biological target: T1, recombinant full-length SARS-CoV-2 nucleocapsid protein (Np) (SARS-CoV-2, UniProt P0DTC9 1-419)
T1 construct: also called N protein; recombinant Np
Assay: pull-down
Conditions: both partners purified

B1: HALO-tagged recombinant full-length human DDX3X (enzyme, UniProt O00571 1-662, looked up)
chain: MSHVAVENALGLDQQFAGLDLNSSDNQSGGSTASKGRYIPPHLRNREATKGFYDKDSSGWSSSKDKDAYSSFGSRSDSRGKSSFFSDRGSGSRGRFDDRGRSDYDGIGSRGDRSGFGKFERGGNSRWCDKSDEDDWSKPLPPSERLEQELFSGGNTGINFEKYDDIPVEATGNNCPPHIESFSDVEMGEIIMGNIELTRYTRPTPVQKHAIPIIKEKRDLMACAQTGSGKTAAFLLPILSQIYSDGPGEALRAMKENGRYGRRKQYPISLVLAPTRELAVQIYEEARKFSYRSRVRPCVVYGGADIGQQIRDLERGCHLLVATPGRLVDMMERGKIGLDFCKYLVLDEADRMLDMGFEPQIRRIVEQDTMPPKGVRHTMMFSATFPKEIQMLARDFLDEYIFLAVGRVGSTSENITQKVVWVEESDKRSFLLDLLNATGKDSLTLVFVETKKGADSLEDFLYHEGYACTSIHGDRSQRDREEALHQFRSGKSPILVATAVAARGLDISNVKHVINFDLPSDIEEYVHRIGRTGRVGNLGLATSFFNERNINITKDLLDLLVEAKQEVPSWLENMAYEHHYKGSSRGRSKSSRFSGGFGARDYRQSSGASSSSFSSSRASSSRSGGGGHGSSRGFGGGGYGGFYNSDGYGGNYNSQGVDWWGN
notes: TEV site between tag and DDX3X; The helicase and EMSA assays used another construct (pET30a(+)-DDX3X, purified from ShuffleT7 E. coli); also called HALO-DDX3X; Halo-tagged DDX3X; not shown: HaloTag, N-terminal, kept
Q: Does B1 bind?
A: binds
